B1: anti-CD33 antibody 6C7H39 (antibody, V domains shown)
VH: EVQLVESGGGLVQPGGSLRLSCAASGFTFSEYDMLWVRQAPGKGLEWVGEIRLKSNNYVTNYAASVKGRFTISRDDTKNSVYLQMNSLKTEDTGVYYCTRAGYYVPFAYWGQGTLVTVSS
VL: QPVLTQSPSASASLGASVKLTCTLSSQHSTYTIEWYQQQPEKGPRYLMELKKEGSHSTGDGIPDRFSGSSSGAERYLTISSLQSEDEADYYCGVGVTIKEQFVYVFGGGTKLTVL
B2: anti-CD33 antibody 6C7H32 (antibody, V domains shown)
VH: EVQLVESGGGLVQPGGSLRLSCAASGSTFSEYDMLWVRQAPGKGLEWVGEIRLKSNNYVTNYAASVKGRFTISRDDSKNSVYLQMNSLKTEDTGVYYCTRAGYYVPFAYWGQGTLVTVSS
VL: QLMLTQSPSASASLGASVKLTCTLSSQHSTYTIEWYQQQPGKGPRYLMELKKEGSHSTGDGIPDRFSGSSSGAERYLTISSLQSEDEADYYCGVGHTIKEQFVYEFGGGTKLTVL
B3: anti-CD33 antibody 6C7H31 (antibody, V domains shown)
VH: EVQLVESGGGLVQPGGSLRLSCAASGSTFSEYDMLWVRQAPGKGLEWVGEIRLKSNNYVTNYAASVKGRFTISRDDSKNSVYLQMNSLKTEDTGVYYCTRAGYYVPFAYWGQGTLVTVSS
VL: QPVLTQSPSASASLGASVKLTCTLSSQHSTYTIEWYQQQPEKGPRYLMELKKEGSHSTGDGIPDRFSGSSSGAERYLTISSLQSEDEADYYCGVGVTIKEQFVYVFGGGTKLTVL
B4: anti-CD33 antibody 6C7H40 (antibody, V domains shown)
VH: EVQLVESGGGLVQPGGSLRLSCAASGFTFSEYDMLWVRQAPGKGLEWVGEIRLKSNNYVTNYAASVKGRFTISRDDTKNSVYLQMNSLKTEDTGVYYCTRAGYYVPFAYWGQGTLVTVSS
VL: QLMLTQSPSASASLGASVKLTCTLSSQHSTYTIEWYQQQPGKGPRYLMELKKEGSHSTGDGIPDRFSGSSSGAERYLTISSLQSEDEADYYCGVGHTIKEQFVYEFGGGTKLTVL
B5: anti-CD33 antibody 6C7H34 (antibody, V domains shown)
VH: EVQLVESGGGLVQPGGSLRLSCAASGSTFSEYDMLWVRQAPGKGLEWVGEIRLKSNNYVTNYAASVKGRFTISRDDSKNSVYLQMNSLKTEDTGVYYCTRAGYYVPFAYWGQGTLVTVSS
VL: QPMLTQSPSASASLGASVKLTCTLSSQHSTYTIEWYQQQPGKGPRYLMELKKEGSHSTGDGIPDRFSGSSSGAERYLTISSLQSEDEADYYCGVGLTIKEQFVYVFGGGTKLTVL
B6: anti-CD33 antibody 6C7H35 (antibody, V domains shown)
VH: EVQLVESGGGLVQPGGSLRLSCAASGFTFSEYAMLWVRQAPGKGLEWVGEIRLKSNNYVTNYAASVKGRFTISRDDSKNSVYLQMNSLKTEDTGVYYCTRAGYYVPFTYWGQGTLVTVSS
VL: QPVLTQSPSASASLGASVKLTCTLSSQHSTYTIEWYQQQPEKGPRYLMELKKEGSHSTGDGIPDRFSGSSSGAERYLTISSLQSEDEADYYCGVGVTIKEQFVYVFGGGTKLTVL
B7: anti-CD33 antibody 6C7H33 (antibody, V domains shown)
VH: EVQLVESGGGLVQPGGSLRLSCAASGSTFSEYDMLWVRQAPGKGLEWVGEIRLKSNNYVTNYAASVKGRFTISRDDSKNSVYLQMNSLKTEDTGVYYCTRAGYYVPFAYWGQGTLVTVSS
VL: QLMLTQSPSASASLGASVKLTCTLSSQHSTYTIEWYQQQPGKGPRYLMELKKEGSHSTGDGIPDRFSGSSSGAERYLTISSLQSEDEADYYCGVGHTIKEQFVYVFGGGTKLTVL

These binders were tested against recombinant cynomolgus CD33 protein (NovoProtein) (cynomolgus) (assay: ELISA, plate coated with recombinant CD33).
Chain of recombinant cynomolgus CD33 protein (NovoProtein) (cynomolgus) (chain, as listed by the source limits assumed): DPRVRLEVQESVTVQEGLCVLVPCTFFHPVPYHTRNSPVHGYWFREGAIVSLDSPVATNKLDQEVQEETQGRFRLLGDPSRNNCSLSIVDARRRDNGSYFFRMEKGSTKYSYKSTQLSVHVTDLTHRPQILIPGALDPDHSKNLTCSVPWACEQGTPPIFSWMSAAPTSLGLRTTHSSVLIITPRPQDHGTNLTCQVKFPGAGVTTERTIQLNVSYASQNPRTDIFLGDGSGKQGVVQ

Compared with B1, B2 is lower in Relative maximal binding (cyno/human): 0.02 for the first, 0.01 for the second.

Compared with B3, B4 is higher in Relative maximal binding (cyno/human): 0.02 for the first, 0.03 for the second.

Going from B5 to B6, the Relative maximal binding (cyno/human) rises from 0.01 to 0.04.

B7 showed a Relative maximal binding (cyno/human) of 0.01.

Reference: patent US20250270319A1
